Experiments:
[1] = target: T1, NMDARs of spinal dorsal horn neurons (Rattus norvegicus, UniProt P35439+Q00959+Q00960); test: Electrophysiological recordings in rat spinal cord slices (SNL, Cacna2d1 vector); type: cell-based; details: SNL rats; peptides 1 mM for 60 min
T1 construct: from tissue; host or cells: rat lumbar spinal cord slices (lamina II neurons) and synaptosomes made from them
Protocol: Electrophysiological recordings in spinal cord slices: Anesthesia was induced in rats or mice with isoflurane and removed the lumbar spinal cords via laminectomy. […] The spinal cord slices were placed in a glass bottom chamber and continuously perfused with Krebs solution at 5.0 ml/min at 34° C. maintained by an inline solution heater and a temperature controller.
It becomes impossible to visualize neurons in other laminas in adult (>10-week-old) rodent spinal cords because of heavy laminar myelination. […] The tip of the puff pipette was placed 150 μm away from the recorded neuron.
In some experiments, the attached dorsal root was electrically stimulated with a stimulating electrode (0.5 ms, 0.6 mA and 0.1 Hz) to evoke monosynaptic excitatory postsynaptic currents (EPSCs). The α-amino-3-hydroxy-5-methyl-4-isoxazolepropionic acid receptor (AMPAR)-mediated EPSCs were recorded at a holding potential of −60 mV in the presence of 10 μM bicuculline and 1 μM strychnine, whereas NMDAR-mediated EPSCs were recorded at +40 mV in the presence of 10 μM 6-cyano-7-nitroquinoxaline-2,3-dione, 10 μM bicuculline, and 1 μM strychnine. […] All signals were recorded using an amplifier (MultiClamp700B; Axon Instruments Inc., Union City, Calif.), filtered at 1-2 kHz, digitized at 10 kHz, and stored for off-line analysis. Final spinal cord slice recordings were performed 3-4 weeks after the nerve injury or sham surgery. In all electrophysiological experiments, 3-5 animals were used for each recording protocol, and only 1 neuron was recorded in each spinal cord slice.

[2] = target: T2, presynaptic NMDARs of spinal dorsal horn neurons (Rattus norvegicus, UniProt P35439+Q00959+Q00960); test: Spinal cord slice recordings, morphine-treated rats; type: cell-based; details: AP5 50 μM, gabapentin 100 μM
T2 construct: from tissue; host or cells: rat lumbar spinal cord slices (lamina II neurons) and synaptosomes made from them
T2 sequence (Q00959 20-1464 limits assumed, other chains not shown): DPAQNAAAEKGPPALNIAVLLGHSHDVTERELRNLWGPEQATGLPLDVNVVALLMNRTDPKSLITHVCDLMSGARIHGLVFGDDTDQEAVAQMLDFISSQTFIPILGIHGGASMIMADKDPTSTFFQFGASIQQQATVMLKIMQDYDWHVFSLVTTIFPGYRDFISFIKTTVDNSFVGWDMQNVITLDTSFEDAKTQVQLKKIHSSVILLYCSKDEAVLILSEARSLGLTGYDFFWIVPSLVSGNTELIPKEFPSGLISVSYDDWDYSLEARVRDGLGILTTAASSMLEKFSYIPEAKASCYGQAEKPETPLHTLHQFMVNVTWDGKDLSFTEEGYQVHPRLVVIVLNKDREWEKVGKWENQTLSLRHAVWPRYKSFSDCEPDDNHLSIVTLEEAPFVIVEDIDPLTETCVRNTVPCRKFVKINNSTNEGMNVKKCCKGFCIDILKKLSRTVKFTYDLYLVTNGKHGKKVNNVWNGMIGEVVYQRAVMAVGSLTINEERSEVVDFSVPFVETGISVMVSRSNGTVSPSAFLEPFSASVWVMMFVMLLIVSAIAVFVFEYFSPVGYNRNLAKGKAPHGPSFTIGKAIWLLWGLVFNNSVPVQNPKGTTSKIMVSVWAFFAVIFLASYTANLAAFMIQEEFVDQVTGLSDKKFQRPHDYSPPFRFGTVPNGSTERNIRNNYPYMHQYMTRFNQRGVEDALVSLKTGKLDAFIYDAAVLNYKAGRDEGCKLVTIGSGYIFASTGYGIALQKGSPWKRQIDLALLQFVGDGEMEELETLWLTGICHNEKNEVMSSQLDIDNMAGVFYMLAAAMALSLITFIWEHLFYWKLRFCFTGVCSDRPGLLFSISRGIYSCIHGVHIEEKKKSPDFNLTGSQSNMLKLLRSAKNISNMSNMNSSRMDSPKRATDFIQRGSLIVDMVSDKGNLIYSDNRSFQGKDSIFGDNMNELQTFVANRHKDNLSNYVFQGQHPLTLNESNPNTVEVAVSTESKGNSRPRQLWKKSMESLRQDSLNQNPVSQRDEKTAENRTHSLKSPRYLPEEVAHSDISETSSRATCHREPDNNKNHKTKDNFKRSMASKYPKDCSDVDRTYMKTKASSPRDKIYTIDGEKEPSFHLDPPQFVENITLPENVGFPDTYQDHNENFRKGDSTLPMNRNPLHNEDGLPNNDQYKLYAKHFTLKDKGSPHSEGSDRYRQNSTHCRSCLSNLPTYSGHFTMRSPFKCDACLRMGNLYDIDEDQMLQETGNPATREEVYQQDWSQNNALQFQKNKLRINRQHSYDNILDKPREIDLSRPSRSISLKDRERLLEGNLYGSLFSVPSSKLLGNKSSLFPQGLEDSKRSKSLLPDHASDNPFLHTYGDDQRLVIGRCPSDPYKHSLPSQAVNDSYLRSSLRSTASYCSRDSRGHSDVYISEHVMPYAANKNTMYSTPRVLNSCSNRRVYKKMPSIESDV
T2 sequence (Q00960 27-1482, other chains not shown): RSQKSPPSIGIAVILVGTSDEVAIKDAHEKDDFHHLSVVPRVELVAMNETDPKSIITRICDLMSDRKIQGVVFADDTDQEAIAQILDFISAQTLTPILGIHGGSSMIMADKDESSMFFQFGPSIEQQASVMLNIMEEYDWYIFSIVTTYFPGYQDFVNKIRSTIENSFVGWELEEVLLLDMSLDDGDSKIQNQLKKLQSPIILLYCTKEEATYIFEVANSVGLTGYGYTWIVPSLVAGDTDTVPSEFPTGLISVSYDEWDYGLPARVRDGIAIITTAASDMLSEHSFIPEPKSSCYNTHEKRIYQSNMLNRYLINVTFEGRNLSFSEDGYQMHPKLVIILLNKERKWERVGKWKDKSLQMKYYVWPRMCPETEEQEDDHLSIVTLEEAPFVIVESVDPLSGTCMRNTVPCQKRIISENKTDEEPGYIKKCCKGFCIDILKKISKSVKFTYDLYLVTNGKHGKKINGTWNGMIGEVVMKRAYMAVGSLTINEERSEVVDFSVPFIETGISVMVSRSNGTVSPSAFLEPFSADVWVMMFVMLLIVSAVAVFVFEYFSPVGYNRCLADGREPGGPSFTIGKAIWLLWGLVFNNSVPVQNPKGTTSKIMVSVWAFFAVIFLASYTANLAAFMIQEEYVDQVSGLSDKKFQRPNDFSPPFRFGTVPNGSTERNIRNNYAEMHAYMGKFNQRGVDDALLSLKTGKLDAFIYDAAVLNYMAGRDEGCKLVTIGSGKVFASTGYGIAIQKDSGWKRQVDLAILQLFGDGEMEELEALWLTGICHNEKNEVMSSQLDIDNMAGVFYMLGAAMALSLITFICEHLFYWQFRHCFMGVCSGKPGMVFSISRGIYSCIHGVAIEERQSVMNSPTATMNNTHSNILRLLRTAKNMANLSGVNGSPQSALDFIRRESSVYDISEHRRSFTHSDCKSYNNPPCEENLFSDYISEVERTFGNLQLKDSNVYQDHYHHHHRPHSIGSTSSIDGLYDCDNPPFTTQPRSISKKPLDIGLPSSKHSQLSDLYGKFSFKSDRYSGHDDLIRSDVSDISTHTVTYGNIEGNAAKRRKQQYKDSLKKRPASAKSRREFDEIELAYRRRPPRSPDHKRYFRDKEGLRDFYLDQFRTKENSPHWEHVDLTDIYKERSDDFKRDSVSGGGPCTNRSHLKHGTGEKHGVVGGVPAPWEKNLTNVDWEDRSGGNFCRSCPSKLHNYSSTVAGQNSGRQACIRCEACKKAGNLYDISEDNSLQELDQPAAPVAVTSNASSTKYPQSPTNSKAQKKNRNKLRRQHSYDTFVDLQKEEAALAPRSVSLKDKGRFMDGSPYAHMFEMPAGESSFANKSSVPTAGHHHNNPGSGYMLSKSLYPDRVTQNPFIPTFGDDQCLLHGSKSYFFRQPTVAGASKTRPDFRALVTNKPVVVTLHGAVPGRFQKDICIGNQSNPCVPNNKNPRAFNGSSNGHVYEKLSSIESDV
Protocol: Spinal cord slice preparation and electrophysiological recordings: The lumbar spinal cord was rapidly removed through laminectomy from the animals anesthetized with isoflurane. […] The spinal cord tissue was then placed in a shallow groove formed in an agar block and glued onto the stage of a vibratome (Leica, Germany).
All signals were recorded using an amplifier (MultiClamp700B; Axon Instruments Inc., Union City, Calif.), filtered at 1-2 kHz, and digitized at 10 kHz.

## YGRKKRRQRRRVSGLNPSLWSIFGLQFILLWLVSGSRHYLW (a2d1 peptide) [α2δ-1Tat peptide, 30-amino-acid peptide mimicking the C-terminal domain of α2δ-1 fused to the cell-penetrating peptide Tat]
[1]
  increased pre- and postsynaptic NMDAR activity of spinal dorsal horn neurons: normalized
[2]; peptide 1 μM for 60 min
  frequency of mEPSCs in dorsal horn neurons: significantly reduced
[2]; peptides 1 μM for 60 min
  amplitude of monosynaptic evoked EPSCs: normalized
